According to PMC10258192:

Biological target: T1, mEGFP-SRSF2, Q01130
T1 chain: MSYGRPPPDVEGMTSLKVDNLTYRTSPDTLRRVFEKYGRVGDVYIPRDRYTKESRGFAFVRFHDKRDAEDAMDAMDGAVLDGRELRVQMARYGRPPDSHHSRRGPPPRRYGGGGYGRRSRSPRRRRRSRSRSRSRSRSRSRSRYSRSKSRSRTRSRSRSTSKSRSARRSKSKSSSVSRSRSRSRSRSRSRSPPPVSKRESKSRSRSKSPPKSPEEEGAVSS
Experiment: SEC-MALS; purified protein, static light scattering after the molecular sieve; before addition of PEG8000
Conditions: remark: other sources report otherwise

B1: mEGFP-SRSF2, Q01130 1-221 (natural protein)
chain: MSYGRPPPDVEGMTSLKVDNLTYRTSPDTLRRVFEKYGRVGDVYIPRDRYTKESRGFAFVRFHDKRDAEDAMDAMDGAVLDGRELRVQMARYGRPPDSHHSRRGPPPRRYGGGGYGRRSRSPRRRRRSRSRSRSRSRSRSRSRYSRSKSRSRTRSRSRSTSKSRSARRSKSKSSSVSRSRSRSRSRSRSRSPPPVSKRESKSRSRSKSPPKSPEEEGAVSS
B1 gave a stoichiometry N of 5000.
